Source: paper PMC3695523, “Reconstitution and characterization of eukaryotic N6-threonylcarbamoylation of tRNA using a minimal enzyme system” (Nucleic Acids Research, 2013)

Key:
[1] = molecular target: the molecule itself; assay: crystal structure; Qri7 30-407 at 10 mg/ml, 0.1 M Tris-HCl pH 7.5, 8% PEG8000, 0.2 M MgCl2, 4°C; homodimer by crystallographic symmetry
[2] = molecular target: the molecule itself; assay: AUC; dimerization dissociation constants of the interface mutants (Supplementary Figure S5B); whether from equilibrium or velocity runs is not stated; 20°C; dimer to monomers
[3] = molecular target: the molecule itself; assay: AUC; sedimentation velocity, 20°C, 42 000 rpm, 0.3125, 0.0625, 0.125, 0.250, 0.5 or 1 mg/ml protein
[4] = molecular target: the molecule itself; assay: AUC; sedimentation equilibrium, 20°C, 0.25, 0.5 and 1 mg/ml, 10 000, 12 000, 15 000 rpm; fitted to a monomer-dimer model; dimer to monomers

B1: Saccharomyces cerevisiae Qri7 (amino acids 30-407), crystallised form (enzyme, UniProt P43122 30-407, looked up)
chain: RKGYKVLAIETSCDDTCVSVLDRFSKSAAPNVLANLKDTLDSIDEGGIIPTKAHIHHQARIGPLTERALIESNAREGIDLICVTRGPGMPGSLSGGLDFAKGLAVAWNKPLIGVHHMLGHLLIPRMGTNGKVPQFPFVSLLVSGGHTTFVLSRAIDDHEILCDTIDIAVGDSLDKCGRELGFKGTMIAREMEKFINQDINDQDFALKLEMPSPLKNSASKRNMLSFSFSAFITALRTNLTKLGKTEIQELPEREIRSIAYQVQESVFDHIINKLKHVLKSQPEKFKNVREFVCSGGVSSNQRLRTKLETELGTLNSTSFFNFYYPPMDLCSDNSIMIGWAGIEIWESLRLVSDLDICPIRQWPLNDLLSVDGWRTDQL
modifications: seleno-methionine (a seleno-methionine crystal data set was collected)
notes: One protomer in the asymmetric unit; the homodimer is made by crystallographic symmetry; also called scQri7; not shown: His6, N-terminal, cleaved
binding result [1]: binds

B2: Qri7 (30-407) K130A (enzyme, yeast (Saccharomyces cerevisiae), UniProt P43122 30-407, looked up)
chain: RKGYKVLAIETSCDDTCVSVLDRFSKSAAPNVLANLKDTLDSIDEGGIIPTKAHIHHQARIGPLTERALIESNAREGIDLICVTRGPGMPGSLSGGLDFAAGLAVAWNKPLIGVHHMLGHLLIPRMGTNGKVPQFPFVSLLVSGGHTTFVLSRAIDDHEILCDTIDIAVGDSLDKCGRELGFKGTMIAREMEKFINQDINDQDFALKLEMPSPLKNSASKRNMLSFSFSAFITALRTNLTKLGKTEIQELPEREIRSIAYQVQESVFDHIINKLKHVLKSQPEKFKNVREFVCSGGVSSNQRLRTKLETELGTLNSTSFFNFYYPPMDLCSDNSIMIGWAGIEIWESLRLVSDLDICPIRQWPLNDLLSVDGWRTDQL
notes: Qri7, S. cerevisiae, amino acids 30-407, dimer interface mutant; also called K130A mutant; source: E. coli BL21 (DE3) CodonPlus, purified (Ni-NTA or glutathione sepharose, SEC)
Kd [2]: 2500 ± 200 nM

B3: Qri7 (30-407) R207A (enzyme, yeast (Saccharomyces cerevisiae), UniProt P43122 30-407, looked up)
chain: RKGYKVLAIETSCDDTCVSVLDRFSKSAAPNVLANLKDTLDSIDEGGIIPTKAHIHHQARIGPLTERALIESNAREGIDLICVTRGPGMPGSLSGGLDFAKGLAVAWNKPLIGVHHMLGHLLIPRMGTNGKVPQFPFVSLLVSGGHTTFVLSRAIDDHEILCDTIDIAVGDSLDKCGAELGFKGTMIAREMEKFINQDINDQDFALKLEMPSPLKNSASKRNMLSFSFSAFITALRTNLTKLGKTEIQELPEREIRSIAYQVQESVFDHIINKLKHVLKSQPEKFKNVREFVCSGGVSSNQRLRTKLETELGTLNSTSFFNFYYPPMDLCSDNSIMIGWAGIEIWESLRLVSDLDICPIRQWPLNDLLSVDGWRTDQL
notes: Qri7, S. cerevisiae, amino acids 30-407, catalytic cleft mutant; source: E. coli BL21 (DE3) CodonPlus, purified (Ni-NTA or glutathione sepharose, SEC)
stoichiometry N [3]: 2

B4: Qri7 (residues 30-407), wild type, as used for analytical ultracentrifugation (enzyme, yeast (Saccharomyces cerevisiae), UniProt P43122 30-407, looked up)
chain: RKGYKVLAIETSCDDTCVSVLDRFSKSAAPNVLANLKDTLDSIDEGGIIPTKAHIHHQARIGPLTERALIESNAREGIDLICVTRGPGMPGSLSGGLDFAKGLAVAWNKPLIGVHHMLGHLLIPRMGTNGKVPQFPFVSLLVSGGHTTFVLSRAIDDHEILCDTIDIAVGDSLDKCGRELGFKGTMIAREMEKFINQDINDQDFALKLEMPSPLKNSASKRNMLSFSFSAFITALRTNLTKLGKTEIQELPEREIRSIAYQVQESVFDHIINKLKHVLKSQPEKFKNVREFVCSGGVSSNQRLRTKLETELGTLNSTSFFNFYYPPMDLCSDNSIMIGWAGIEIWESLRLVSDLDICPIRQWPLNDLLSVDGWRTDQL
notes: Qri7, S. cerevisiae, amino acids 30-407; also called wild-type Qri7; source: E. coli BL21 (DE3) CodonPlus, purified (Ni-NTA or glutathione sepharose, SEC)
stoichiometry N [3]: 2 | Kd [4]: 60 nM

B5: Qri7 (30-407) I77E (enzyme, yeast (Saccharomyces cerevisiae), UniProt P43122 30-407, looked up)
chain: RKGYKVLAIETSCDDTCVSVLDRFSKSAAPNVLANLKDTLDSIDEGGEIPTKAHIHHQARIGPLTERALIESNAREGIDLICVTRGPGMPGSLSGGLDFAKGLAVAWNKPLIGVHHMLGHLLIPRMGTNGKVPQFPFVSLLVSGGHTTFVLSRAIDDHEILCDTIDIAVGDSLDKCGRELGFKGTMIAREMEKFINQDINDQDFALKLEMPSPLKNSASKRNMLSFSFSAFITALRTNLTKLGKTEIQELPEREIRSIAYQVQESVFDHIINKLKHVLKSQPEKFKNVREFVCSGGVSSNQRLRTKLETELGTLNSTSFFNFYYPPMDLCSDNSIMIGWAGIEIWESLRLVSDLDICPIRQWPLNDLLSVDGWRTDQL
notes: as for B3
stoichiometry N [3]: 2

B6: Qri7 (30-407) R104A (enzyme, yeast (Saccharomyces cerevisiae), UniProt P43122 30-407, looked up)
chain: RKGYKVLAIETSCDDTCVSVLDRFSKSAAPNVLANLKDTLDSIDEGGIIPTKAHIHHQARIGPLTERALIESNAAEGIDLICVTRGPGMPGSLSGGLDFAKGLAVAWNKPLIGVHHMLGHLLIPRMGTNGKVPQFPFVSLLVSGGHTTFVLSRAIDDHEILCDTIDIAVGDSLDKCGRELGFKGTMIAREMEKFINQDINDQDFALKLEMPSPLKNSASKRNMLSFSFSAFITALRTNLTKLGKTEIQELPEREIRSIAYQVQESVFDHIINKLKHVLKSQPEKFKNVREFVCSGGVSSNQRLRTKLETELGTLNSTSFFNFYYPPMDLCSDNSIMIGWAGIEIWESLRLVSDLDICPIRQWPLNDLLSVDGWRTDQL
notes: Qri7, S. cerevisiae, amino acids 30-407, dimer interface mutant; also called R104A mutant; source: E. coli BL21 (DE3) CodonPlus, purified (Ni-NTA or glutathione sepharose, SEC)
Kd [2]: 3000 ± 300 nM

B7: Qri7 (30-407) D44A (enzyme, yeast (Saccharomyces cerevisiae), UniProt P43122 30-407, looked up)
chain: RKGYKVLAIETSCDATCVSVLDRFSKSAAPNVLANLKDTLDSIDEGGIIPTKAHIHHQARIGPLTERALIESNAREGIDLICVTRGPGMPGSLSGGLDFAKGLAVAWNKPLIGVHHMLGHLLIPRMGTNGKVPQFPFVSLLVSGGHTTFVLSRAIDDHEILCDTIDIAVGDSLDKCGRELGFKGTMIAREMEKFINQDINDQDFALKLEMPSPLKNSASKRNMLSFSFSAFITALRTNLTKLGKTEIQELPEREIRSIAYQVQESVFDHIINKLKHVLKSQPEKFKNVREFVCSGGVSSNQRLRTKLETELGTLNSTSFFNFYYPPMDLCSDNSIMIGWAGIEIWESLRLVSDLDICPIRQWPLNDLLSVDGWRTDQL
notes: as for B3
stoichiometry N [3]: 2

B8: Qri7 (30-407) D43A (enzyme, yeast (Saccharomyces cerevisiae), UniProt P43122 30-407, looked up)
chain: RKGYKVLAIETSCADTCVSVLDRFSKSAAPNVLANLKDTLDSIDEGGIIPTKAHIHHQARIGPLTERALIESNAREGIDLICVTRGPGMPGSLSGGLDFAKGLAVAWNKPLIGVHHMLGHLLIPRMGTNGKVPQFPFVSLLVSGGHTTFVLSRAIDDHEILCDTIDIAVGDSLDKCGRELGFKGTMIAREMEKFINQDINDQDFALKLEMPSPLKNSASKRNMLSFSFSAFITALRTNLTKLGKTEIQELPEREIRSIAYQVQESVFDHIINKLKHVLKSQPEKFKNVREFVCSGGVSSNQRLRTKLETELGTLNSTSFFNFYYPPMDLCSDNSIMIGWAGIEIWESLRLVSDLDICPIRQWPLNDLLSVDGWRTDQL
notes: as for B3
stoichiometry N [3]: 2

B9: Qri7 (30-407) S258A (enzyme, yeast (Saccharomyces cerevisiae), UniProt P43122 30-407, looked up)
chain: RKGYKVLAIETSCDDTCVSVLDRFSKSAAPNVLANLKDTLDSIDEGGIIPTKAHIHHQARIGPLTERALIESNAREGIDLICVTRGPGMPGSLSGGLDFAKGLAVAWNKPLIGVHHMLGHLLIPRMGTNGKVPQFPFVSLLVSGGHTTFVLSRAIDDHEILCDTIDIAVGDSLDKCGRELGFKGTMIAREMEKFINQDINDQDFALKLEMPSPLKNSASKRNMLSFSFAAFITALRTNLTKLGKTEIQELPEREIRSIAYQVQESVFDHIINKLKHVLKSQPEKFKNVREFVCSGGVSSNQRLRTKLETELGTLNSTSFFNFYYPPMDLCSDNSIMIGWAGIEIWESLRLVSDLDICPIRQWPLNDLLSVDGWRTDQL
notes: as for B3
stoichiometry N [3]: 2
